Assay results taken from US10920254B2, “Methods and materials for producing 5 and 7-carbon monomers” (INVISTA North America S.á.r.l., priority 2015, dated 2021).

Tests used:
Type in all cases: biochemical
[1] = carboxylate reductase enzyme activity assay (N7-acetyl-7-aminoheptanoate to N7-acetyl-7-aminoheptanal), NADPH consumption at 340 nm; conditions: purified enzyme enhanced by gene product of sfp; 2 mM N7-acetyl-7-aminoheptanoate, 1 mM ATP, 1 mM NADPH, pH 7.5, room temperature, 20 min; FIG. 10
Method: The activity of each of the N-terminal His-tagged carboxylate reductases of SEQ ID NOs: 3, 5, and 6 (see Examples 2 and 3, and FIG. 6B, FIGS. 6D-6E) for converting N7-acetyl-7-aminoheptanoate to N7-acetyl-7-aminoheptanal was assayed in triplicate in a buffer composed of a final concentration of 50 mM HEPES buffer (pH=7.5), 2 mM N7-acetyl-7-aminoheptanoate, 10 mM MgCl2, 1 mM ATP, and 1 mM NADPH. The assays were initiated by adding purified carboxylate reductase and phosphopantetheine transferase or the empty vector control to the assay buffer containing the N7-acetyl-7-aminoheptanoate then incubated at room temperature for 20 min. The consumption of NADPH was monitored by absorbance at 340 nm.

[2] = carboxylate reductase enzyme activity assay (pimelate semialdehyde to heptanedial), NADPH consumption at 340 nm; conditions: purified enzyme enhanced by gene product of sfp; 2 mM pimelate semialdehyde, 1 mM ATP, 1 mM NADPH, pH 7.5, room temperature, 20 min; FIG. 11
Method: The N-terminal His-tagged carboxylate reductase of SEQ ID NO: 6 (see Example 3 and FIG. 6E) was assayed using pimelate semialdehyde as substrate. The enzyme activity assay was performed in triplicate in a buffer composed of a final concentration of 50 mM HEPES buffer (pH=7.5), 2 mM pimelate semialdehyde, 10 mM MgCl2, 1 mM ATP, and 1 mM NADPH. The enzyme activity assay reaction was initiated by adding purified carboxylate reductase and phosphopantetheine transferase or the empty vector control to the assay buffer containing the pimelate semialdehyde and then incubated at room temperature for 20 min. The consumption of NADPH was monitored by absorbance at 340 nm.

[3] = carboxylate reductase enzyme activity assay (pimelate to pimelate semialdehyde), NADPH consumption at 340 nm; conditions: purified enzyme enhanced by gene product of sfp; 2 mM pimelate, 1 mM ATP, 1 mM NADPH, pH 7.5, room temperature, 20 min; FIG. 8
Method: A nucleotide sequence encoding a HIS-tag was added to the nucleic acid sequences from Segniliparus rugosus and Segniliparus rotundus that encode the carboxylate reductases of SEQ ID NOs: 4 (EFV11917.1) and 6 (ADG98140.1), respectively (see FIG. 6C and FIG. 6E), such that N-terminal HIS tagged carboxylate reductases could be produced. Each of the modified genes was cloned into a pET Duet expression vector along with a sfp gene encoding a HIS-tagged phosphopantetheine transferase from Bacillus subtilis, both under the T7 promoter. Each expression vector was transformed into a BL21[DE3] E. coli host and the resulting recombinant E. coli strains were cultivated at 37° C. in a 250 mL shake flask culture containing 50 mL LB media and antibiotic selection pressure, with shaking at 230 rpm. Each culture was induced overnight at 37° C. using an auto-induction media.
The pellet from each induced shake flask culture was harvested via centrifugation. Each pellet was resuspended and lysed via sonication, and the cell debris was separated from the supernatant via centrifugation. […]
Enzyme activity assays (i.e., from pimelate to pimelate semialdehyde) were performed in triplicate in a buffer composed of a final concentration of 50 mM HEPES buffer (pH=7.5), 2 mM pimelate, 10 mM MgCl2, 1 mM ATP, and 1 mM NADPH. […] The consumption of NADPH was monitored by absorbance at 340 nm. […]

Row | acceptance of pimelate as substrate (NADPH consumption), confirmed against the empty vector control [3] | Molecule | acceptance of N7-acetyl-7-aminoheptanoate as substrate (NADPH consumption), confirmed against the empty vector control [1] | acceptance of pimelate semialdehyde as substrate (NADPH consumption), confirmed against the empty vector control [2]
1 | accepted pimelate as substrate | SEQ ID NO: 6: Segniliparus rotundus carboxylate reductase, N-terminal HIS tagged (protein, listed as Segniliparus rotundus, N-terminal His tag, Segniliparus rotundus carboxylate reductase, N-terminal HIS tagged) MTQSHTQGPQASAAHSRLARRAAELLATDPQAAATLPDPEVVRQATRPGLRLAERVDAILSGYADRPALGQRSFQTVKDPITGRSSVELLPTFDTITYRELRERATAIASDLAHHPQAPAKPGDFLASIGFISVDYVAIDIAGVFAGLTAVPLQTGATLATLTAITAETAPTLFAASIEHLPTAVDAVLATPSVRRLLVFDYRAGSDEDREAVEAAKRKIADAGSSVLVDVLDEVIARGKSAPKAPLPPATDAGDDSLSLLIYTSGSTGTPKGAMYPERNVAHFWGGVWAAAFDEDAAPPVPAINITFLPLSHVASRLSLMPTLARGGLMHFVAKSDLSTLFEDLKLARPTNLFLVPRVVEMLYQHYQSELDRRGVQDGTREAEAVKDDLRTGLLGGRILTAGFGSAPLSAELAGFIESLLQIHLVDGYGSTEAGPVWRDGYLVKPPVTDYKLIDVPELGYFSTDSPHPRGELAIKTQTILPGYYKRPETTAEVFDEDGFYLTGDVVAQIGPEQFAYVDRRKNVLKLSQGEFVTLAKLEAAYSSSPLVRQLFVYGSSERSYLLAVIVPTPDALKKFGVGEAAKAALGESLQKIARDEGLQSYEVPRDFIIETDPFTVENGLLSDARKSLRPKLKEHYGERLEAMYKELADGQANELRDIRRGVQQRPTLETVRRAAAAMLGASAAEIKPDAHFTDLGGDSLSALTFSNFLHDLFEVDVPVGVIVSAANTLGSVAEHIDAQLAGGRARPTFATVHGKGSTTIKASDLTLDKFIDEQTLEAAKHLPKPADPPRTVLLTGANGWLGRFLALEWLERLAPAGGKLITIVRGKDAAQAKARLDAAYESGDPKLAGHYQDLAATTLEVLAGDFSEPRLGLDEATWNRLADEVDFISHPGALVNHVLPYNQLFGPNVAGVAEIIKLAITTRIKPVTYLSTVAVAAGVEPSALDEDGDIRTVSAERSVDEGYANGYGNSKWGGEVLLREAHDRTGLPVRVFRSDMILAHQKYTGQVNATDQFTRLVQSLLATGLAPKSFYELDAQGNRQRAHYDGIPVDFTAESITTLGGDGLEGYRSYNVFNPHRDGVGLDEFVDWLIEAGHPITRIDDYDQWLSRFETSLRGLPESKRQASVLPLLHAFARPGPAVDGSPFRNTVFRTDVQKAKIGAEHDIPHLGKALVLKYADDIKQLGLL | accepted N7-acetyl-7-aminoheptanoate as substrate | accepted pimelate semialdehyde as substrate
2 | accepted pimelate as substrate | SEQ ID NO: 4: Segniliparus rugosus carboxylate reductase, N-terminal HIS tagged (protein, listed as Segniliparus rugosus, N-terminal His tag, Segniliparus rugosus carboxylate reductase, N-terminal HIS tagged) MGDGEERAKRFFQRIGELSATDPQFAAAAPDPAVVEAVSDPSLSFTRYLDTLMRGYAERPALAHRVGAGYETISYGELWARVGAIAAAWQADGLAPGDFVATVGFTSPDYVAVDLAAARSGLVSVPLQAGASLAQLVGILEETEPKVLAASASSLEGAVACALAAPSVQRLVVFDLRGPDASESAADERRGALADAEEQLARAGRAVVVETLADLAARGEALPEAPLFEPAEGEDPLALLIYTSGSTGAPKGAMYSQRLVSQLWGRTPVVPGMPNISLHYMPLSHSYGRAVLAGALSAGGTAHFTANSDLSTLFEDIALARPTFLALVPRVCEMLFQESQRGQDVAELRERVLGGRLLVAVCGSAPLSPEMRAFMEEVLGFPLLDGYGSTEALGVMRNGIIQRPPVIDYKLVDVPELGYRTTDKPYPRGELCIRSTSLISGYYKRPEITAEVFDAQGYYKTGDVMAEIAPDHLVYVDRSKNVLKLSQGEFVAVAKLEAAYGTSPYVKQIFVYGNSERSFLLAVVVPNAEVLGARDQEEAKPLIAASLQKIAKEAGLQSYEVPRDFLIETEPFTTQNGLLSEVGKLLRPKLKARYGEALEARYDEIAHGQADELRALRDGAGQRPVVETVVRAAVAISGSEGAEVGPEANFADLGGDSLSALSLANLLHDVFEVEVPVRIIIGPTASLAGIAKHIEAERAGASAPTAASVHGAGATRIRASELTLEKFLPEDLLAAAKGLPAADQVRTVLLTGANGWLGRFLALEQLERLARSGQDGGKLICLVRGKDAAAARRRIEETLGTDPALAARFAELAEGRLEVVPGDVGEPKFGLDDAAWDRLAEEVDVIVHPAALVNHVLPYHQLFGPNVVGTAEIIRLAITAKRKPVTYLSTVAVAAGVEPSSFEEDGDIRAVVPERPLGDGYANGYGNSKWAGEVLLREAHELVGLPVAVFRSDMILAHTRYTGQLNVPDQFTRLVLSLLATGIAPKSFYQQGAAGERQRAHYDGIPVDFTAEAITTLGAEPSWFDGGAGFRSFDVFNPHHDGVGLDEFVDWLIEAGHPISRIDDHKEWFARFETAVRGLPEAQRQHSLLPLLRAYSFPHPPVDGSVYPTGKFQGAVKAAQVGSDHDVPHLGKALIVKYADDLKALGLL | – | –
